Where two headings read alike, the source gives them in different places.
Experiments:
human CD3ε/δ-His = target: T1, human CD3ε/δ-His (human, UniProt P07766 23-126; P04234 22-105); test: SPR, antibody captured on Protein A chip
T1 construct: Bought recombinant heterodimer with His tag; also called human CD3ε/δ protein

[1] = target: T2, cynomolgus monkey CD3 on the surface of expanded monkey T cells (cynomolgus monkey, UniProt Q95LI5 22-198; Q95LI8 22-171; Q95LI7 23-181); test: FACS, expanded monkey T cells
T2 construct: whole, on cells; Endogenous CD3 within the TCR-CD3 complex on T cells expanded from cynomolgus monkey PBMC
T2 sequence (Q95LI5 22-198, chain 1 of 3): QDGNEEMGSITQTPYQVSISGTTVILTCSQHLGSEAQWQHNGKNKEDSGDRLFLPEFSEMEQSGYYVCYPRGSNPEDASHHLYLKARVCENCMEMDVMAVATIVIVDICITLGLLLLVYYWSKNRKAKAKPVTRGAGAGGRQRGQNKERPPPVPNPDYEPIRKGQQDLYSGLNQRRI
T2 sequence (Q95LI8 22-171, chain 2 of 3): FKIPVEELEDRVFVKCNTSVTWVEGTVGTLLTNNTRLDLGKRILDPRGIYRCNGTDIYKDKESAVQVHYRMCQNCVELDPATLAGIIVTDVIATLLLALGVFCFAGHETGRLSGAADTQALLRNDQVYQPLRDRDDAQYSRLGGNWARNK
T2 sequence (Q95LI7 23-181, chain 3 of 3): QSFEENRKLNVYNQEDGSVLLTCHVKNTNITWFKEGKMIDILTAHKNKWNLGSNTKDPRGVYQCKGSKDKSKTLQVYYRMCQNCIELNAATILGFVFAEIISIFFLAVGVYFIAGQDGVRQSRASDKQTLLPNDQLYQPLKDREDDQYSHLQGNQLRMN
Description: (§1) The binding of the chimeric antibodies to CD3 on the cell surface was analyzed by detecting the binding of the antibodies to Jurkat cells and human T cells. Suspension cells Jurkat cells were scale-up cultured in T-75 cell culture flasks to the logarithmic growth phase, the supernatant of the medium was discarded by centrifugation, and the cell pellet was washed 2 times with PBS for later use. The expanded human T cells were washed 2 times with PBS for later use. After counting the cells in the previous step, the cell pellet was resuspended with [PBS+2% (w/w) BSA] blocking solution to 4×10⁶ cells/ml, and added to a 96-well FACS reaction plate at 50 μl/well, and then the chimeric antibody to be tested was added at 50 μl/well, and incubated at 4° C. for 1 h. The cells were centrifuged and washed 3 times with a PBS buffer. […] The cells were centrifuged and washed 5 times with PBS, and FACS (FACS Canto™, purchased from BD Company) was used for detection and result analysis. Data analysis was performed by software (CellQuest) to obtain the mean fluorescence […] (MFI) of the cells. And then software (GraphPad Prism8) was used for analysis, data fitting, and EC50 value calculation. The same method was used to simultaneously detect the binding of the chimeric antibodies to endogenous CD3 negative cells MOLT4 cells.
FACS detection and data analysis were performed on the cryopreserved monkey T cells of Example 2.4 according to the method in Example 5.1.

[2] = target: T2, cynomolgus monkey CD3 on the surface of …; test: FACS, expanded monkey T cells; remark: listed apart in the source
Description: as §1, with “MOLT4 cells. […]” for “MOLT4 cells.”

T1 sequence (P07766 23-126, stated change not applied, form in doubt, chain 1 of 2): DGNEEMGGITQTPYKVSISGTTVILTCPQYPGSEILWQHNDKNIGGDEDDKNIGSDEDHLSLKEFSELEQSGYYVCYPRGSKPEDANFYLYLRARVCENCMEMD
T1 sequence (P04234 22-105, stated change not applied, form in doubt, chain 2 of 2): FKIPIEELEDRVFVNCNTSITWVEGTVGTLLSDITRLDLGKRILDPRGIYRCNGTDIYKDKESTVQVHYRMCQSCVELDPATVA

B1: 40G5c-hIgG1 (antibody, V domains shown)
VH: EVQLVQSGAEVKKPGASVKVSCKASGYTFTNYYIHWVRQAPGQGLEWIGWIYPGDGNTKYNEKFKGRATLTADTSTSTAYLELSSLRSEDTAVYYCARDSYSNYYFDYWGQGTLVTVSS
VL: DIVMTQSPDSLAVSLGERATINCKSSQSLLNSRTRKNYLAWYQQKPGQPPKLLIYWASTRESGVPDRFSGSGSGTDFTLTISSLQAEDVAVYYCTQSFILRTFGQGTKVEIKR
Kd (human CD3ε/δ-His): 21.3 nM
koff (human CD3ε/δ-His): 0.0327 s⁻¹
kon (human CD3ε/δ-His): 1.53e+06 M⁻¹ s⁻¹
EC50 [1]: 0.63 nM
MFI_Max [1]: 24100 MFI
EC50 [2]: 0.53 nM
